We go through 40 sequences from the nanobody polyreactivity screen of Harvey et al. (2022).

This data set is described as follows: yeast display, Sf9 membrane polyspecificity reagent, FACS + sequencing; frameworks hold sequencing errors. A digest of the protocol:
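Nanobodies came from a synthetic yeast display library in Saccharomyces cerevisiae BJ5465, induced with galactose for 36–48 hours and stained for 1 hour at 4 °C with 10% biotinylated, detergent-solubilized Sf9 membrane reagent. Cells were enriched on streptavidin microbeads and then FACS-sorted, with low and high (top ~1%) gates set on anti-HA fluorescence for expression and streptavidin fluorescence for reagent binding. Each polyreactivity label reflects the gate a clone came from. Genes were amplified by colony PCR, sequenced by MiSeq 2 × 250 and filtered by CDR length.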
On to “QVQLEESGGGLVQAGGSLRLSWAASGRTIAAYAMGWYRQAPGKERELVAAISIGGSTNYADSVKGRFTISRDNAKNTVYLQMNSLKPEDTAVYYCAAPRRRYLRARIRYEYWGQGTQVTVSS”, for which the “polyreactivity (PSR sort gate)” value was “high polyreactivity”.
As to “QVQLEESGGGLVQAGGSLRLTCAASGIIFRFYAMRCDRQAPGKERELVAVITSRSDSTYYADSVKGRFTISRDYAKNTVYLQMNSVKPEDTAVYYCNARYPWYYRYSTYDYWGQGTQVTVSS”, the “polyreactivity (PSR sort gate)” value is on record as “high polyreactivity”.
As for “QVQLEESGGGLVQAGGSLRLTCAASGRTFSSYTMGWSRQAPGKERELVASITNNGGSTYYADSVKGRFTISRDNAKNTVYLQMNSLKPEDTAVYYCNKDPWYVFHPRGLFLFDYWGQGTQVTVSS”, the “polyreactivity (PSR sort gate)” value is “low polyreactivity”.
For “QVQLEESGGGLVQAGGSLSLSSAASGSIFRNYAKGWYRQAPGKERELVAAISVRGGSTYYADSVKGRFTISRDNAKNTVYLQMNSLKPEDTAVYYCNARTYYPVYYRDGGYWGQGTQVTVSS” the value was “high polyreactivity”; for “QVQLEESGGGLVQAGGSRRLSCAASGITFPGYAMGWYRQAPGKERELVAGITYRGGRTYYADSVKGRFTISRDNAKTTVYLQMTSLNTEATAVYYCNADYWSTGGSYSFDYWGQGTQVTVSS”, “low polyreactivity”; for “QVQLEESGGGLVQAGGTLRLSCAASGLNFSYNAMGWYRQAPGKERELVAAISYSGGSTYYPDSVKGRFTISRDNAKNTVYLQMNSLKPEDTAVYYCASDAWWLYYGYYYWGQGTQVTLSS”, “high polyreactivity”.
Next, “QVQLEESGGGLVQAGRSLRLISAASGRMFGWNAMGWYRQAPWKERELVASIRSGGRTNYADSVKGRFTISRDNAKNTVYLQMNSLKPEDTAVYYCAVGPYYQSTQIYDYWGQGTQVTVSS”: “low polyreactivity”.
Consider “QVQLEESGGGLVQAVGSLRLTCAASGLIFKSNAMGWYRQAPGKERQLVAAITRTGGSTYYADSVKGRFTISRDNAKNTVYLQMNSLKPEDTAVYYCAVLYDRYGRAYYYWGQGTQVTVSS”, for which the “polyreactivity (PSR sort gate)” value was “high polyreactivity”.
Next, “QVQLEESGGGLVQAVRSLRLSCAASGSTFDYYAMRWFRQAPWKEREFVAAISVSGGRTYDADSVKGRFTISRDNAKTTVYLQMNSQKPEDTAVSYCAAVQWYLPSFRYYYRGQGTQVTVSS”: “high polyreactivity”; “QVQLEESGGGLVQPGGSLRLSCAASGIIFAYNAMGWNRQAPGKERELVATITDSGGTTSYADSVKGRFTISRDNAKNTVYLQMNRLKQEDTAVYYCAVLPVYWYWRNYVYLSGYDYWGQGTQVNVSS”: “low polyreactivity”; “QVQLEESGGRLVQAGARLRLSCAASGPIFHQYAMGWYRHAPGKERELGAAISSGGGSTYYADSVKGRFTISRDNAKNTGYLQMNSLKPEDTAVYYCNVYSVRWARFDFWGQGTQVTVSS”: “high polyreactivity”.
As to “QVQLEESGGRLVQAGASLRLSCAASGSIFEDYVMGWYRHAPGKERELVADITSGGTTYYADSVKGRFTISRDYAKNTVYLQMNRLKPEATAVYYCNAYLIVDYGDETPYASLHDYWGQGTQVTVSS”, the “polyreactivity (PSR sort gate)” value is “low polyreactivity”.
For “QVQLEESGGRLVQAGGSLRLSCAASGGILRGYGMGWYRQAQGKQRELVAVISRRGGSTYYADSVKGRFTISRDNAKNTVYLQMNRLKPEVTAVYYCAADLKTGFLEYDYWGQGTQVTVSS” the value was “high polyreactivity”.
Regarding “QVQLEESGGRLVQAGGSLRLSCAASGSIIGRYTMGWYRQAPGKERELVAAISGSGGSTYYADSVKGRFTISRDNAKNSVYFQMYSLKPEDTAVYYCAAYYYGRYLMVYWGQGTQVTVAS”, the “polyreactivity (PSR sort gate)” value was “high polyreactivity”.
As for “QVQLEESGGRLVQEGGSLRLSCAASGYIFQGNAMGWYTPAPGKERELVAAITSSGGRTYYADSVKGRFTISRDNAKNTVYLQMHSLKPEDTAVYYCAAKSVRRGGGEYWGEGTQVTVSS”, the “polyreactivity (PSR sort gate)” value is “high polyreactivity”.
Regarding “QVQLEESGGRLVQPGGSLRLSCAASGFIFGIYDMGWYRQAPGKERELVAAITYSGSSTYYADSVKGRFTISRDNAKNTVYLQMNSLKPEDTAVYYCNKTAWDWDYWDPEYDYWGQGTQVTVSS”, the “polyreactivity (PSR sort gate)” value is “high polyreactivity”.
With “QVQLEESGGVLVQAGGSLRLSCAASGLTLYRNAMGWYRQAPGKERELVATINFSGGSTYYADSVKGRFTISRDNAKNTVYLQMNSLKPEDTAVYYCNARGYWHYSPTKFDYWGQGTQVTVSS”, the “polyreactivity (PSR sort gate)” value is listed as “low polyreactivity”.
For “QVQLEESGGVLVQAGGSLRLSCAASGSIFDAYAMGWYRQAPGKDRELVADITVSAGRTYYADSVNGRFTISRDNAKNTVYLQMNSLKPEDTAVYYCAADSIVGDGYWSYYWGQGTQVTVSS” the value was “low polyreactivity”; for “QVQLEESGRGLLQAGGSLRISCAASGFIYGTNTMGWYRQAPGIARELVAAITSVGSTNYADSVKGRFTISRDNAKNTVYLQMNSLKPEDTAVYYCPATLYYQYGGDYWGQGTQVTVSS”, “low polyreactivity”; for “QVQLEESGVGLLQAGGSLRLSCAASGFIFCSNDMGWYRQAPGKERELVAAITRGGNTNYADSVKGRFTISRDNAKNTVYLQLNSLKPEDTAVYYCATEGYGAVQPSYEGGYWGQGTQVTVSS”, “low polyreactivity”.
For “QVQLEESRGGIVQAGGSLRLSCAASGFTFSTYAMGWYRPAPGKELELVASISRSGNTNYADSVKGRFTISRDNAKNTVYLQMKSLKPEDTAVYSSAAELVYRRVRYDYWGQGTQVTVSS” the value was “high polyreactivity”.
For “QVQLEESRGGLVQAGGSHRLSCAAYGSIFRSYAMGWYRQAPGKERDLVAAISSRSGSTYYADSVKGRFTISRDNAKNTVYLQMNSLKPEDTAVYYCAAQHRHSFGYWGQGTQVTVSS” the value was “high polyreactivity”; for “QVQLEESRGGLVQAGGSLRLSCAASGITFYTYAMGWYRQAPGKETELVAAITSRTGSTYYADSVKGRFTISRDNAKNTVYLQMNSLKPEDTAVYDCAADRTRGRDGSDYWGQGTQVTVSS”, “low polyreactivity”.
With “QVQLEESRGGLVQAGGSLRLSCAASGYIFSYYDMGWYRQAPGKERELVASITSSGGSTYYADSVKGRFTISRDNGKNTVYLQMNSLKPEDTAVYYCNADVYDTYSPLGYYFWGQGTQVTVSS”, the “polyreactivity (PSR sort gate)” value is on record as “low polyreactivity”.
Next, “QVQLEESRGGLVQAGGSLRLSYPASGRTYVTYAMGWYRQAPGKERELVAAITSGGSTNYADSVKGRFTISRDNAKNTVYLQMNSLKPEDTAVYYCAKAYLWYKGIFDYWGQGTQVTVSS”: “low polyreactivity”; “QVQLEESVGGLVQAGGSLRLSCAASGRIFAAYAMGWYRQEPGKERELVAAITGSGGRTYYADSVKGRFTISRDNAKNTVYLQMNSLKPEDTAVYYCAAESTPYSSVDRVAVYYWGQGTQVTVSS”: “high polyreactivity”; “QVQLEESWGVLVQAGCSLRISCAASGRIFAYNAMGSYRQAPGKERELVAAISWRVGSTYYADSVKGRFSISRDNAKNTVYLQMNILKPEDTAVYYCAVGYYRFGRVLGYYWGQGTQVSVSS”: “high polyreactivity”.
Next, “QVQLEETGGGLVQAGGSLRLSCAASGSIFHYNAMGWYRQAPGKEREFVAAITGGGGTYYADSVKGRCTISRDNAKNTVYFQMNSLKPEDTGVYYCAAQSRTSFRFNYWGQVTQVTVSS”: “high polyreactivity”.
For “QVQLEETGGGLVQAGGSLRLTCAASVRTFRGNVMGWYREAPGKERELVAAINWTGSSTYYADSVKGRFTISRDNAKNSVYLQMNSLKPEDTAVYYCATRSGPHGGGLPRDYWGQGTQVTVSS” the value was “low polyreactivity”.
Take “QVQLEETGGRLVQAGARLRLSCDASGYIFFFYAMGWYRHAPGKERELDASITYRGGSTYYADSVKGRFTLSRDYAKNTVYLQINSLKPEDTAVYYCIVDGGGPLGPHGFPFDYWGQGTQVTVSS”: the “polyreactivity (PSR sort gate)” value is “low polyreactivity”.
For “QVQLEVSGGGLVQAGRSLRLSCAASGSTFYGYAMGWYRQAPGKERELVAAITSSGGSTYYADSVKGRFTISRDNAKNTVYLQMNSLKPEDTAVYYCNAKRAPWGTLYNYWGQGTQVTVSS” the value was “high polyreactivity”; for “QVQLGDSGGGLVQAGGRLGLSCAASGSTFGRYAMGWYRPAPGKERELVAAISSSGGRTYYADSVKGRFTISRDNAKNTVYLQMNSLKPEDTAVYYCASDARFRQKYEYWGQGTQVTVSS”, “high polyreactivity”.
For “QVQLGDSGGGLVQAGGRLRLSCAASGRTIRPYTMGWYRQAPGNERALVAAITSGGGSTYYADSVKGRFTISRDNAKNTVTLQMHSLKPDDTAVYYCAAPRRERWIDVNQHYSWGQGTQVTVSS” the value was “low polyreactivity”; for “QVQLGDSGGGLVQAGGSLRLSCAASGFNFRTNTMGWYRQEPGKERELVAAITRSGGSTYYADSVKGRFTISSDNAKYTVYLQMNSLKPEDSAVYYCAKEYRRVVADFGYWGQGTQVTVSS”, “high polyreactivity”; for “QVQLGDSGGGLVQAGGSLRLSCAASGRIFYGNAMGWYRQAPWKERELVAAISSGGGSTYYADSVKGRFTISRDNAKNTVYLQMNSLKPEDNAVYYCAADPVPRFPGTGGYWGQGTQVTVSS”, “low polyreactivity”.
Turning to “QVQLGDSGGGLVQAGGSLRLSCAASGSIFNKYAMGWYRQAPGKEREFVAPITQGGGRTYYADSVKGRFTISRDNAKNNVYLQMNSLKPEDTAVYYCIYNFNYPYYRYGYWGQGTQVTVSS”, the “polyreactivity (PSR sort gate)” value was “high polyreactivity”.
For “QVQLGESGGGFVQAGGSLRLSCAASGSTFSYNAMGWYIQASGKESEFVAAISSSGGRTYYADSVKWRFTISRDYEKNTVYLQMKSLKPEDTAVYYCPAKSRLPTQGLGMYYWGKGTQVTVSS” the value was “high polyreactivity”; for “QVQLGESGGGLLQAGGSLRLSCAASGRSFSVNFMGWYRQAPGKDTELVAAIDTSGGSTYYADSVKGRFTISRDNAKNTVYLQMNCLNPEHTAVYVCASGFYGYRSSCYWGQGTQVTVSS”, “low polyreactivity”.
For “QVQLGESGGGLVQAGGILRLSCAASGSIFARYAMGWYRQPPGKERELVAAISSNSASTYYADSVKGRFTISRDNAKNTVYLQMNCLIPEDTAVYYCATAYRSYWLNDYWGQGTQVTVSS” the value was “low polyreactivity”; for “QVQLGESGGGLVQAGGSLRLICAASGRTIRQYAMGRYRQAPGKERELVAAIDSGGSTYYADSVKGRFTISRDNAKNTVYLQMNSLKPEYTAVYYCAKGPSWKYYSYTLDYWGQGTQVTVSS”, “low polyreactivity”.
